The values below come from the supplement of paper PMC9170038.

The data set has as its system MS2 coat protein. The data set can be described thus: apparent KD of MS2 coat protein; designed switch direction (-1 OFF switch, 1 ON switch): -1; higher = weaker reporter binding. Summed up:
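Three titration conditions were used: no input, 200 uM small-molecule ligand, and an oligonucleotide input. In each, SNAP-549-labelled MS2 coat protein was raised from 0.7 or 1.5 nM, doubling, to 3 µM over designed RNA switches transcribed on Illumina chips by stalled E. coli RNA polymerase. Curve fits of normalised cluster fluorescence gave values whose per-design median over clusters is the apparent KD.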

The mark [1] stands for this setting: Eterna round: R95, input ligand: microRNA oligo, concentration not stated.
Setting [2] is: input ligand: microRNA oligo, concentration not stated.
Where [3] appears, read: Eterna round: R95, input ligand: FMN 200 uM.
Where [4] appears, read: Eterna round: R95, input ligand: none.

Take “GCUCCAGGAGGAUAUGCAUUCGAAAACAUGAGGAUCACCCAUGUAGGUGUCCUCGUGCGAGCAGAAGGCCUAAAAC [Rebebiso] (Eterna round: R97, puzzle: Exclusion 5)”: the “apparent KD of MS2 coat protein” value came to 145 nM (input ligand: FMN 200 uM) and 208 nM (input ligand: none).
In the case of “GCUGAUGCAGGAUAUAUAUGAAGCGUUCGAAUAGAAUGCGAACAUGAGGAUCACCCAUGUAGAAGGGCAUUGGC [Omei Ex 2, 1A] (puzzle: Exclusion 2)”, under setting [1], the “apparent KD of MS2 coat protein” value worked out at 13.9 nM.
Take “GCUGCGCGAGGAUAUGCGGUUUGUGCUGUGGCCCGUGGCGUACAUGAGGAUCACCCAUGUAGAAGGCGUGUGGG [Apr-15 SS2-54] (puzzle: Exclusion 2)”: the “apparent KD of MS2 coat protein” value under setting [1] was determined as 22.5 nM.
For “GCUGGACGAGGAUAUACAAUCGUGCUUCGGCACGUAAGGUCACAUGAGGAUCACCCAUGUAGAAGGUGUCCAGC [E2/2-B2] (Eterna round: R97, puzzle: Exclusion 2)”, the “apparent KD of MS2 coat protein” value is, setting by setting: (input ligand: FMN 200 uM) 54.8 nM; (input ligand: none) 18.3 nM.
As for “GCUGGUCGAGGAUAUACAAUCGUGCUUCGGCACGUAAGAUCACAUGAGGAUCACCCAUGUAGAAGGUGACCAGC [E2/1-B3] (Eterna round: R97, puzzle: Exclusion 2)”, the “apparent KD of MS2 coat protein” value by setting is: (input ligand: FMN 200 uM) 118 nM; (input ligand: none) 25.1 nM.
In the case of “GCUUGUGGGCAAGGAUAUCCUACGUUGUUCUGGUUCGUGUCUGUCACAUGAGGAUCACCCAUGUGGGAGAAGGUGCAUUUGGUU [Design 60] (Eterna round: R96, puzzle: Exclusion NG 2)”, the “apparent KD of MS2 coat protein” value reads like this: (input ligand: FMN 200 uM) 15.4 nM; under setting [2], 12.4 nM; (input ligand: none) 17.2 nM.
As to “GGAAAAAAAGUGAGGAUAUCCGGAGGGAAACCUCCGGAGAAGGCACAUGAGGAUCACCCAUGUAAAAAAAAAAA [AK-MS2ROC-r4-Bmoexclusion4-1] (Eterna round: R97, puzzle: Brourd's mod of Exclusion 4)”, the “apparent KD of MS2 coat protein” value (input ligand: FMN 200 uM) is 59.9 nM and the “apparent KD of MS2 coat protein” value (input ligand: none) was 30.5 nM.
“GGAAAGCAAGGAUAUACAAGGAGACGAUGGAAAGUAGAGCGACAUGAGGAUCACCCAUGUAGAAGGUGCGAGAG [JR_Exclu2_Sub038] (puzzle: Exclusion 2)”: the “apparent KD of MS2 coat protein” value came out at 40.7 nM under setting [3], 39.1 nM under setting [1] and 34.8 nM under setting [4].
With “GGAAAGGUAGGAUAUACGAAGAAAAAGGGUAGAAUAAUAACACAUGAGGAUCACCCAUGUAGAAGGACCAAAGC [Mat - Exclusion 2 - Mod of my Tesla design - D13] (puzzle: Exclusion 2)”, the “apparent KD of MS2 coat protein” value under setting [3] was found to be 49.5 nM, the “apparent KD of MS2 coat protein” value under setting [1] stood at 21 nM and the “apparent KD of MS2 coat protein” value under setting [4] amounted to 25.4 nM.
“GGAAGGCGAGGAUAUACAAUAAAGAAAGGGAAAGACGUGAGACAUGAGGAUCACCCAUGUAGAAGGCGCGGAGA [AK-MS2ROC-r4-exclusion2-12] (Eterna round: R97, puzzle: Exclusion 2)”: the “apparent KD of MS2 coat protein” value (input ligand: FMN 200 uM) stood at 40.1 nM and the “apparent KD of MS2 coat protein” value (input ligand: none) worked out at 32.4 nM.
As for “GGAAGGUGAGGAUAUACAAAGACGGAAACGUCAGGUGAGAGACAUGAGGAUCACCCAUGUAGAAGGCACGGAGA [AK-MS2ROC-r4-exclusion2-16.1] (Eterna round: R97, puzzle: Exclusion 2)”, the “apparent KD of MS2 coat protein” value (input ligand: FMN 200 uM) was found to be 279 nM and the “apparent KD of MS2 coat protein” value (input ligand: none) was found to be 74.4 nM.
As for “GGAAUGUAAGGAUAUCCGAAAAGCGAGCGAAAGCGAGCAAAGGAGAAGGUACAUGAGGAUCACCCAUGUAAGGG [AK-MS2ROC-r4-exclusion4-12] (Eterna round: R97, puzzle: Exclusion 4)”, the “apparent KD of MS2 coat protein” value runs as follows: (input ligand: FMN 200 uM) 58.9 nM; (input ligand: none) 768 nM.
The matching figures for “GGACGGAUAGGAUAUACAUGAGGAUCACCCAUGUGAACCCAGCAGAGGCUUCUUUGCAGUAGAAGGGUCCUUUA [Eternabot (Original) Solution 43] (Eterna round: R97, puzzle: Exclusion 3)”: 53.5 nM and 47.5 nM.
“GGAGAGAGAGGAUAUGGAGGAAAGAACAUGAGGAUCACCCAUGUAGAGCCUCAAGAUCGACCAGAAGGCUCAGUCC [AK-MS2ROC-r4-exclusion5-10] (Eterna round: R97, puzzle: Exclusion 5)”: the “apparent KD of MS2 coat protein” value (input ligand: FMN 200 uM) is 150 nM and the “apparent KD of MS2 coat protein” value (input ligand: none) came to 27.5 nM.
Consider “GGAGGACGAGCAGGAUAUUUUUACAUGAGGAUCACCCAUGUGUACUCAGGGUAAUCCUCCGCCGAAAAGAAGGGUUCGGAAGAA [JL ViennaUCT Socedi mod 4] (Eterna round: R96, puzzle: Exclusion NG 2)”, for which the “apparent KD of MS2 coat protein” value reads like this: (input ligand: FMN 200 uM) 124 nM; under setting [2], 41.6 nM; (input ligand: none) 63.2 nM.
In the case of “GGAUAAAGUCGAGGAUAUACGCACCACUAACGAGUAGAAGGCGAACAUGAGGAUCACCCAUGUGAGUUCUCAAUAAGAAACACG [Prohibition 69 - Jieux - Exclusion NG 1] (Eterna round: R96, puzzle: Exclusion NG 1)”, the “apparent KD of MS2 coat protein” value was found to be 54.1 nM (input ligand: FMN 200 uM), 26.1 nM under setting [2] and 37.1 nM (input ligand: none).
As to “GGAUCACAUGUCAGGAUAUGCUGGUCCUUGGAUCAGCAGAAGGGACAUGAGGAUCACCCAUGUCAUGAAGAUCC [Eli bmx4 4.80] (Eterna round: R97, puzzle: Brourd's mod of Exclusion 4)”, the “apparent KD of MS2 coat protein” value by setting is: (input ligand: FMN 200 uM) 1020 nM; (input ligand: none) 139 nM.
As to “GGAUCGAAAGUGAGGAUAUACCACUGGAUACAGUGGUAGAAGGCACAUGAGGAUCACCCAUGUCCUUACGAUCC [Fiskers BMX 4 - 48] (puzzle: Brourd's mod of Exclusion 4)”, the “apparent KD of MS2 coat protein” value under setting [1] was determined as 20.5 nM.
Regarding “GGAUCGAAUGUGAGGAUAUGCUGGUCCUUGGAUCAGCAGAAGGCACAUGAGGAUCACCCAUGUGACCAAGAUCC [Eli bmx4 4.73] (Eterna round: R97, puzzle: Brourd's mod of Exclusion 4)”, the “apparent KD of MS2 coat protein” value by setting is: (input ligand: FMN 200 uM) 450 nM; (input ligand: none) 44.1 nM.
In the same order, the values of “GGAUCGAGUGUGAGGAUAUGCUGGUCCUUGGAUCAGCAGAAGGCACAUGAGGAUCACCCAUGUGAAGACGGUCC [Copy of R95 JL bmx4 3.16] (Eterna round: R97, puzzle: Brourd's mod of Exclusion 4)” are 288 nM and 38.6 nM.
Consider “GGAUCGAGUGUGAGGAUAUGCUGGUCCUUGGAUCAGCAGAAGGCACAUGAGGAUCACCCAUGUGAAGACGGUCC [JL bmx4 3.16] (Eterna round: R96, puzzle: Brourd's mod of Exclusion 4)”, for which the “apparent KD of MS2 coat protein” value under setting [2] is 25.9 nM.
“GGAUCGAGUGUGAGGAUAUGCUGGUCCUUGGAUCAGCAGAAGGCACAUGAGGAUCACCCAUGUGAAGACGGUCC [JL bmx4 3.16] (puzzle: Brourd's mod of Exclusion 4)”: the “apparent KD of MS2 coat protein” value reads like this: under setting [3], 270 nM; under setting [1], 24.7 nM; under setting [4], 25.8 nM.
Consider “GGAUCGAGUGUGAGGAUAUGCUGGUCGUAAGAUCAGCAGAAGGCACAUGAGGAUCACCCAUGUGAAAACGGUCC [Mat - Exclusion 4 - JL Mod - D72] (puzzle: Brourd's mod of Exclusion 4)”, for which, under setting [1], the “apparent KD of MS2 coat protein” value stood at 25.6 nM.
